The results in this text go back to patent US5534410.

Assay [1] addresses Sp1, over-expressed and purified from HeLa cells infected with a vaccinia virus expression vector (Homo sapiens (Human)) (UniProt P08047). Put plainly: 35S-TAF110 (reticulocyte lysate) on DNA-bound Sp1 resin, SDS-PAGE, PhosphorImager.
For assay [2], the target named is GAL4-Sp1B domain fusion (Homo sapiens (Human)) (UniProt P08047).

Take “Drosophila TAF110 (dTAFII110), full-length”: in assay [1], the fold greater binding to the Sp1-containing resin than to the resin without Sp1 was determined as 60 fold.

Take “Sp1(N539), the gln-rich A and B domains of Sp1 (from UniProt P08047)”: in assay [2], the transcription of a reporter gene dependent on GAL4 binding sites (CAT), superactivation assay in Drosophila Schneider cells was 50 fold.
